B4: human mitochondrial Lon (68-959) K898A (enzyme, UniProt P36776 68-959, looked up)
chain: FWEASSRGGGAFSGGEDASEGGAEEGAGGAGGSAGAGEGPVITALTPMTIPDVFPHLPLIAITRNPVFPRFIKIIEVKNKKLVELLRRKVRLAQPYVGVFLKRDDSNESDVVESLDEIYHTGTFAQIHEMQDLGDKLRMIVMGHRRVHISRQLEVEPEEPEAENKHKPRRKSKRGKKEAEDELSARHPAELAMEPTPELPAEVLMVEVENVVHEDFQVTEEVKALTAEIVKTIRDIIALNPLYRESVLQMMQAGQRVVDNPIYLSDMGAALTGAESHELQDVLEETNIPKRLYKALSLLKKEFELSKLQQRLGREVEEKIKQTHRKYLLQEQLKIIKKELGLEKDDKDAIEEKFRERLKELVVPKHVMDVVDEELSKLGLLDNHSSEFNVTRNYLDWLTSIPWGKYSNENLDLARAQAVLEEDHYGMEDVKKRILEFIAVSQLRGSTQGKILCFYGPPGVGKTSIARSIARALNREYFRFSVGGMTDVAEIKGHRRTYVGAMPGKIIQCLKKTKTENPLILIDEVDKIGRGYQGDPSSALLELLDPEQNANFLDHYLDVPVDLSKVLFICTANVTDTIPEPLRDRMEMINVSGYVAQEKLAIAERYLVPQARALCGLDESKAKLSSDVLTLLIKQYCRESGVRNLQKQVEKVLRKSAYKIVSGEAESVEVTPENLQDFVGKPVFTVERMYDVTPPGVVMGLAWTAMGGSTLFVETSLRRPQDKDAKGDKDGSLEVTGQLGEVMKESARIAYTFARAFLMQHAPANDYLVTSHIHLHVPEGATPKDGPSAGCTIVTALLSLAMGRPVRQNLAMTGEVSLTGKILPVGGIKEATIAAKRAGVTCIVLPAENKKDFYDLAAFITEGLEVHFVEHYREIFDIAFPDEQAEALAVER
notes: human mitochondrial LonP1, mature protein, residues 68-959 of UniProt P36776, with K898A; The substrate is trapped as a covalent ester intermediate on S855; also called Lon^K898A; substrate-trapped Lon; not shown: His6, N-terminal, cleaved

Series [1] deals with B4. The experiment in a line: cryo-EM structure; 0.5-0.7 mg/ml Lon construct in 20 mM HEPES pH 7.5, 100 mM NaCl, 10 mM MgCl2, 3% glycerol, 2 mM ATP added to 0.2 mg/ml TFAM, 30 s at room temperature, then vitrified; single-particle reconstruction. Particulars: both partners purified.
Series [2] concerns the target T1, human mitochondrial Lon, full-length mature form (68-959), wild type (human, UniProt P36776 68-959).
T1 construct: human mitochondrial LonP1, mature protein, residues 68-959 of UniProt P36776; Homohexamer in the cryo-EM structure; vector pNIC28-Bsa4; also called LonP1; wt-Lon; not shown: His6, N-terminal, cleaved
T1 sequence (looked up): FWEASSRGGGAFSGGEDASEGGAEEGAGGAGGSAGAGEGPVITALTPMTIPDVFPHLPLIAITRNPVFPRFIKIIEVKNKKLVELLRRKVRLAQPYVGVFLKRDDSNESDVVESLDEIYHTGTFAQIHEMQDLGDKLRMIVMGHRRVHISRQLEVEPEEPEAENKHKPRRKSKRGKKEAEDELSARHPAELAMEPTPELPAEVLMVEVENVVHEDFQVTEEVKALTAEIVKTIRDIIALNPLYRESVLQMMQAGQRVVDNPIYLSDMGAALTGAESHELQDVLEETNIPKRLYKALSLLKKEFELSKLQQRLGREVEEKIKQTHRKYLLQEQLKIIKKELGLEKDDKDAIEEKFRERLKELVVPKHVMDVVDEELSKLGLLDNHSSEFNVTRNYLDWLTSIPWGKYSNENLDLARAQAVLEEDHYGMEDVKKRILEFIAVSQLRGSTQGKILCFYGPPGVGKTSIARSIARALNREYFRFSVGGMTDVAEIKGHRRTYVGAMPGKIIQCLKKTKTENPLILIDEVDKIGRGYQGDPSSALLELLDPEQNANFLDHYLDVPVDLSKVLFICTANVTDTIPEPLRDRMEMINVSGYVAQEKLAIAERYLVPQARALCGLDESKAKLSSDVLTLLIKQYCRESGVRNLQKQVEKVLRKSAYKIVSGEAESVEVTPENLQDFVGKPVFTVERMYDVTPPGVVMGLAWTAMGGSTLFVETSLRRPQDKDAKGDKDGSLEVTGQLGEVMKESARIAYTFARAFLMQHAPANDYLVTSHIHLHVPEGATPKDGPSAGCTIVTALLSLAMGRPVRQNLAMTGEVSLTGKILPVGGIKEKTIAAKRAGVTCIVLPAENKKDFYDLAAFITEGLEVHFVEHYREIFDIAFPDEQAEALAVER
The series is described as above. Particulars: both partners purified.

Series [3] concerns the molecule itself. Described as above.
Series [4] deals with the molecule itself. The experiment in a line: SEC; Superose 6 Increase 3.2/300; 25 mM Tris-HCl pH 8.0, 10% glycerol, 1 mM DTT, 50 mM NaCl, 2 mM ATP; protein incubated at 37°C for 10 min with 2 mM ATP and 10 mM MgCl2; fractions analysed by SDS-PAGE.

B1: mitochondrial transcription factor A, mature (amino acids 43-246) (natural protein, UniProt Q00059 43-246, looked up)
chain: SSVLASCPKKPVSSYLRFSKEQLPIFKAQNPDAKTTELIRRIAQRWRELPDSKKKIYQDAYRAEWQVYKEEISRFKEQLTPSQIMSLEKEIMDKHLKRKAMTKKKELTLLGKPKRPRSAYNVYVAERFQEAKGDSPQEKLKTVKENWKNLSDSEKELYIQHAKEDETRYHNEMKSWEEQMIEVGRKDLLRRTIKKQRKYGAEEC
notes: mitochondrial transcription factor A (TFAM), mature, amino acids 43-246; also called TFAM; substrate; not shown: His6, N-terminal, cleaved
As to B1, the binding result in series [1] and in series [2] was “binds” throughout.

B2: human mitochondrial Lon (68-959) G106P, R563W, K594M (enzyme, UniProt P36776 68-959, looked up)
chain: FWEASSRGGGAFSGGEDASEGGAEEGAGGAGGSAGAGEPPVITALTPMTIPDVFPHLPLIAITRNPVFPRFIKIIEVKNKKLVELLRRKVRLAQPYVGVFLKRDDSNESDVVESLDEIYHTGTFAQIHEMQDLGDKLRMIVMGHRRVHISRQLEVEPEEPEAENKHKPRRKSKRGKKEAEDELSARHPAELAMEPTPELPAEVLMVEVENVVHEDFQVTEEVKALTAEIVKTIRDIIALNPLYRESVLQMMQAGQRVVDNPIYLSDMGAALTGAESHELQDVLEETNIPKRLYKALSLLKKEFELSKLQQRLGREVEEKIKQTHRKYLLQEQLKIIKKELGLEKDDKDAIEEKFRERLKELVVPKHVMDVVDEELSKLGLLDNHSSEFNVTRNYLDWLTSIPWGKYSNENLDLARAQAVLEEDHYGMEDVKKRILEFIAVSQLRGSTQGKILCFYGPPGVGKTSIARSIARALNREYFRFSVGGMTDVAEIKGHRWTYVGAMPGKIIQCLKKTKTENPLILIDEVDMIGRGYQGDPSSALLELLDPEQNANFLDHYLDVPVDLSKVLFICTANVTDTIPEPLRDRMEMINVSGYVAQEKLAIAERYLVPQARALCGLDESKAKLSSDVLTLLIKQYCRESGVRNLQKQVEKVLRKSAYKIVSGEAESVEVTPENLQDFVGKPVFTVERMYDVTPPGVVMGLAWTAMGGSTLFVETSLRRPQDKDAKGDKDGSLEVTGQLGEVMKESARIAYTFARAFLMQHAPANDYLVTSHIHLHVPEGATPKDGPSAGCTIVTALLSLAMGRPVRQNLAMTGEVSLTGKILPVGGIKEKTIAAKRAGVTCIVLPAENKKDFYDLAAFITEGLEVHFVEHYREIFDIAFPDEQAEALAVER
notes: human mitochondrial LonP1, mature protein, residues 68-959 of UniProt P36776, with the mutations G106P, R563W and K594M that arose spontaneously on cloning; also called Lon^Apo; substrate-free form of Lon; not shown: His6, N-terminal, cleaved
Consider B2, for which, in series [3], the binding result is “binds”.

B3: human mitochondrial Lon (68-959) L396A (enzyme, UniProt P36776 68-959, looked up)
chain: FWEASSRGGGAFSGGEDASEGGAEEGAGGAGGSAGAGEGPVITALTPMTIPDVFPHLPLIAITRNPVFPRFIKIIEVKNKKLVELLRRKVRLAQPYVGVFLKRDDSNESDVVESLDEIYHTGTFAQIHEMQDLGDKLRMIVMGHRRVHISRQLEVEPEEPEAENKHKPRRKSKRGKKEAEDELSARHPAELAMEPTPELPAEVLMVEVENVVHEDFQVTEEVKALTAEIVKTIRDIIALNPLYRESVLQMMQAGQRVVDNPIYLSDMGAALTGAESHELQDVLEETNIPKRLYKALSLLKKEFELSKLQQRLGREVEEKIKQTHRKYLAQEQLKIIKKELGLEKDDKDAIEEKFRERLKELVVPKHVMDVVDEELSKLGLLDNHSSEFNVTRNYLDWLTSIPWGKYSNENLDLARAQAVLEEDHYGMEDVKKRILEFIAVSQLRGSTQGKILCFYGPPGVGKTSIARSIARALNREYFRFSVGGMTDVAEIKGHRRTYVGAMPGKIIQCLKKTKTENPLILIDEVDKIGRGYQGDPSSALLELLDPEQNANFLDHYLDVPVDLSKVLFICTANVTDTIPEPLRDRMEMINVSGYVAQEKLAIAERYLVPQARALCGLDESKAKLSSDVLTLLIKQYCRESGVRNLQKQVEKVLRKSAYKIVSGEAESVEVTPENLQDFVGKPVFTVERMYDVTPPGVVMGLAWTAMGGSTLFVETSLRRPQDKDAKGDKDGSLEVTGQLGEVMKESARIAYTFARAFLMQHAPANDYLVTSHIHLHVPEGATPKDGPSAGCTIVTALLSLAMGRPVRQNLAMTGEVSLTGKILPVGGIKEKTIAAKRAGVTCIVLPAENKKDFYDLAAFITEGLEVHFVEHYREIFDIAFPDEQAEALAVER
notes: human mitochondrial LonP1, mature protein, residues 68-959 of UniProt P36776, with L396A; also called L396A Lon mutant; Lon L396A; not shown: His6, N-terminal, cleaved
With B3, the binding result in series [4] was “binds”. One may read the stoichiometry N as a count of units in the complex or per binding partner. With B4, in series [3], the “stoichiometry N” value was found to be 6.
